T1: MBP-Mos-1 transposase (MBP-Tnp) (Drosophila mauritiana, UniProt Q7JQ07 SEQ:1-345)
T1 sequence: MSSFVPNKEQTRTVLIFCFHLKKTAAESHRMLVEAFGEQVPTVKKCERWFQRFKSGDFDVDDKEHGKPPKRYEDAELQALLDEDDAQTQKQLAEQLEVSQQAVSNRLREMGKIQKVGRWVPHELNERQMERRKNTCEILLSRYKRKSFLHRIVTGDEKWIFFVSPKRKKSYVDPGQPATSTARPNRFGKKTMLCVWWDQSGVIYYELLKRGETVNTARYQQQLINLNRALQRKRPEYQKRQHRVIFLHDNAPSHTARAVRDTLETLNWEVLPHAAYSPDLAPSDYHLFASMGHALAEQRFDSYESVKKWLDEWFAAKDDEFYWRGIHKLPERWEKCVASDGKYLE

T2: Mos-1 transposase FTY (Drosophila mauritiana, UniProt Q7JQ07 SEQ:1-345, F53Y,T216A,Y237C)
T2 sequence: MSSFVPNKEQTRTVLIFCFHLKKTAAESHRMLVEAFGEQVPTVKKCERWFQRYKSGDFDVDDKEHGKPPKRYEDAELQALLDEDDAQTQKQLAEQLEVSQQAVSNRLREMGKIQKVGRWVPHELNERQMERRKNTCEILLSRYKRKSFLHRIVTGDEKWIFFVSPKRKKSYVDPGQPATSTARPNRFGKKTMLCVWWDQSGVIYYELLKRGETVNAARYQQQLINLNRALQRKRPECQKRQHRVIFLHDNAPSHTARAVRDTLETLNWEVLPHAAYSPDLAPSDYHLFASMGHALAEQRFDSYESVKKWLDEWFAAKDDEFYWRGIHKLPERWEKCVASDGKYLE

T3: Mos-1 transposase QY (Drosophila mauritiana, UniProt Q7JQ07 SEQ:1-345, Q91R,Y237C)
T3 sequence: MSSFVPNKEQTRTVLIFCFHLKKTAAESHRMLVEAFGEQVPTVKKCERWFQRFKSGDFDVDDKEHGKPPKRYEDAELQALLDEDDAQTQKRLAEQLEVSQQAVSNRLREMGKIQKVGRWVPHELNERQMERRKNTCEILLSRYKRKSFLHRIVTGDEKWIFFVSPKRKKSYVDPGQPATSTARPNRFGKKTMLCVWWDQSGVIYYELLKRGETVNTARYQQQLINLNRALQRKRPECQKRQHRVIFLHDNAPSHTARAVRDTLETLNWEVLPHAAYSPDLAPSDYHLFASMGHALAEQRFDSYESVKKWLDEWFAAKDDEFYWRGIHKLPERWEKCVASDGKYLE

T4: Mos-1 transposase FT (Drosophila mauritiana, UniProt Q7JQ07 SEQ:1-345, F53Y,T216A)
T4 sequence: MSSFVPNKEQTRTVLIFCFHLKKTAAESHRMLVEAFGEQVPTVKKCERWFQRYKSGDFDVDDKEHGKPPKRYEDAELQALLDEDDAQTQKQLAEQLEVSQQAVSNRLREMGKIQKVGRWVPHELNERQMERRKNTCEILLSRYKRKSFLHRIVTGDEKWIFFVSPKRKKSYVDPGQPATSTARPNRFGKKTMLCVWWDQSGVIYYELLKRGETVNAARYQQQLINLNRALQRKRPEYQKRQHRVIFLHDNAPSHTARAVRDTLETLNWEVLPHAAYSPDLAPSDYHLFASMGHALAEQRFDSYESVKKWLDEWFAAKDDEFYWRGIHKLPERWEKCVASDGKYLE

B1: ITR46 (dsDNA)
DNA 1: TCAGGTGTACAAGTATGAGATGTCGTTT
DNA 2: AAACGACATCTCATACTTGTACACCTGA
B2: ITR40 (dsDNA)
DNA 1: TCAGGTGTACAAGTATGTAATGTCGTTA
DNA 2: TAACGACATTACATACTTGTACACCTGA

Experiments:
[1] = target: T1, MBP-Mos-1 transposase (MBP-Tnp); assay: EMSA; 5 mM MgCl2, 4 C; settings: tags: N-terminal MBP (pMalC2x); chain copies: 2
Experimental: The sequences inducing a delay in migration after incubation with Tnp (positive ITRs) were subjected to a further gel retardation with a purified DNA fragment. The ITR/protein complexes were formed in a final volume of 20 μl containing: 40 μg of MBP-Tnp protein, 1 nM of ITR probe, 1 μg of salmon sperm DNA, 2 μl of 50% glycerol, 5 mM of MgCl₂ and 0.5 μM of pRev. The ITRs only were used at a final concentration of 1 nM in a mixture containing 2 μl of 50% glycerol and 17 μl of buffer. The interaction reactions were maintained for 15 minutes at 4° C. before being analysed on polyacrylamide gel.

Mos-1 transposase FTY = target: T2, Mos-1 transposase FTY; assay: cell_activity; 3T40 transposition in E. coli T5 vs 3T3/WT; settings: chain copies: 2
Experimental: (§1) Escherichia coli JM109 bacteria were co-transformed with the pBC 3T3 plasmid (comprising a transposition reporter 2 ITR 3′ mariner-like element and the chloramphenicol resistance gene) and with the inducible vector encoding for the transposase (pKK-Tnp or pMal-Tnp) comprising the ampicillin resistance gene. The bacteria selection was performed on ampicillin (100 μg/ml) and chloramphenicol in order to verify the presence of the two plasmids.
(§2) The JM109 bacteria containing both the pBC 3T3 plasmid and the pKK-Tnp (or pMalC2X-Tnp) plasmid were placed in culture for 1 hr at 37° C. in 250 μl of LB. This inoculum was then poured into 5 ml of LB supplemented with 1 mM IPTG. The culture was titrated on LB plates (100 μl of a 1/1000 dilution) and on LB-Tet plates (12.5 μg/ml) (250 μl of the non-diluted culture). The culture induced by IPTG was then cultured for 5 hours at 32° C. (optimal temperature of transposase) under stirring (250 rpm). The bacterial suspension was then titrated on LB plates (100 μl of a 1/250,000 dilution) and on LB-tet plates (100 μl of the undiluted bacterial suspension). The plates were placed at 37° C. overnight. The following day, the colonies were counted on LB and LB-Tet plates, and the transposition frequency (equal to the number of tetracycline bacteria over the number of bacterial per 1 ml of undiluted bacterial suspension) was calculated.
(§3) In order to evaluate the transposition efficiency of systems associating a hyperactive transposase and a pseudo-transposon that is also hyperactive, various combinations were tested in the transposition test in bacteria described in part I, paragraph I-B above.

Mos-1 transposase QY = target: T3, Mos-1 transposase QY; assay: as above; settings: chain copies: 2
Experimental: as §1, §2, §3

Mos-1 transposase FT = target: T4, Mos-1 transposase FT; assay: as above; settings: chain copies: 2
Experimental: as §1, §2, §3

[2] = target: T1, MBP-Mos-1 transposase (MBP-Tnp); assay: competition; competes with labelled ITR3'; settings: tags: N-terminal MBP (pMalC2x); chain copies: 2
Experimental: The principle of these tests is illustrated in FIG. 9. […] The greater the shift, the greater the “improvement” of the ITRSelex sequence with respect to ITR3′. In practice, the transposase fixing reaction is carried out in 20 μl containing 10 mM of Tris pH9 buffer, 0.5 mM of DDT, 5 mM MgCl₂, 5% (vol/vol) of glycerol, 1 μg of herring sperm DNA and 100 ng of BSA, in the presence of 15 nM of radiolabelled ITR3′ and non-radiolabelled ITRSelex. The non-radiolabelled ITRSelex concentrations tested were 0 nM, 15 nM, 75 nM, 150 nM, 300 nM, 750 nM, 1500 nM.

Binder	binding result [1]	activity (Mos-1 transposase FTY)	activity (Mos-1 transposase QY)	activity (Mos-1 transposase FT)	binding result [2]
B1	binds	–	–	–	–
B2	–	2.4 fold	1.3 fold	2 fold	binds

From US20100291682, “SYSTEM FOR TRANSPOSING HYPERACTIVE RECOMBINANT DERIVATIVES OF MOS-1 TRANSPOSON” (published 2010)
